From patent publication US12480043B2, “Red-light-mediated nucleic acid anchoring-type fluorescent probe, and preparation method therefor and use thereof” (SOOCHOW UNIVERSITY, priority 2020, dated 2025)

Key:
[1] = tested on: 4T1 mice breast cancer tumor
Procedure: The control group probe CR and the experimental group probe f-CR were treated with PBS to a concentration of […] 200 μL. MB (PBS, 0.1) was injected into the mouse tumor 0.5 hours in advance by intratumor injection, followed by tail vein injection of CR or f-CR.

[2] = 10 μM
4T1 cells = test: Cytotoxicity of probes co-incubated with MB and cells
[3] = UV visible near-infrared and fluorescence spectra in aqueous solution; assay type: physicochemical; details: 10 μM in ultrapure water
[4] = TEM and particle size of probe in aqueous solution; assay type: physicochemical; details: TEM

Row | Compound | enrichment in the tumor ([1]; 12 hours after probe injection, f-CR+MB+660 nm, tumor sections and organ homogenates) | retention time in vivo (tumor, IVIS) ([1]; MB intratumor 0.5 hours in advance, probe 100 Mm 200 μL tail vein, 660 nm 50 mW/cm^2 3 minutes after 1 hour) | solubility in ultrapure water [2] | toxicity without illumination (4T1 cells; 100, 50, 20, 10, 1, 0.1 μM + MB 0.1 μM, 4T1 cells, 12 hours) | cytotoxicity after illumination (4T1 cells; probe + MB 0.1 μM, 4T1 cells 12 hours, 660 nm 50 mW/cm 2 3 minutes, further cultured 48 hours) | maximum absorption [3] [nm] | maximum emission [3] [nm] | assembly or nanostructure [4]
1 | CC[N+]1=C(/C=C/C=C/C=C/C=C2\N(CCCCCC(=O)NC(CCCCNC(=O)CCc3ccco3)C(=O)NCCCCC3NC(=O)C(Cc4ccccc4)NC(=O)C(CC(=O)O)NC(=O)CNC(=O)C(CCCNC(=N)N)NC3=O)c3ccc(S(=O)(=O)O)cc3C2(C)C)C(C)(C)c2cc(S(=O)(=O)O)ccc21 (stereo not drawn) [f-CR] | much higher than that of other groups | much longer than that of other groups | completely soluble | neither CR nor f-CR showed significant toxicity | exhibited certain cytotoxicity |  |  | 
2 | CC[N+]1=C(/C=C/C=C/C=C/C=C2\N(CCCCCC(=O)NCCCCC3NC(=O)C(Cc4ccccc4)NC(=O)C(CC(=O)O)NC(=O)CNC(=O)C(CCCNC(=N)N)NC3=O)c3ccc(S(=O)(=O)O)cc3C2(C)C)C(C)(C)c2cc(S(=O)(=O)O)ccc21 (stereo not drawn) [CR] |  |  | completely soluble |  |  | 747 | 789 | no assembly or nanostructure was found
